Here are results for one substance from publication PMC8158039.

For this assay, the target named is Recombinant human neonatal Fc receptor (FcRn) (human) (UniProt P55899). Briefly: SPR. For orientation: SPR reads the build-up and loss of mass on a sensor chip optically.
Sequence of UniProt P55899 (P55899 24-365, chain 1 of 2): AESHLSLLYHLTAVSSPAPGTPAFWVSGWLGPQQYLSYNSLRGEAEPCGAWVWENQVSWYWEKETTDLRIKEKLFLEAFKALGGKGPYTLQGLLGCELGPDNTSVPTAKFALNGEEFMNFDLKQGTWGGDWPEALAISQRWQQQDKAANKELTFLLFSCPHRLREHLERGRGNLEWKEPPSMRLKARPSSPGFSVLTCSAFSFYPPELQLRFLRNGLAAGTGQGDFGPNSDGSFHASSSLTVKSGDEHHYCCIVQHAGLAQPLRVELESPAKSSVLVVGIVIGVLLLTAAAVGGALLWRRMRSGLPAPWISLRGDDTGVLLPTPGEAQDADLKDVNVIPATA
Sequence of UniProt P55899 (P61769 21-119, chain 2 of 2, further chain): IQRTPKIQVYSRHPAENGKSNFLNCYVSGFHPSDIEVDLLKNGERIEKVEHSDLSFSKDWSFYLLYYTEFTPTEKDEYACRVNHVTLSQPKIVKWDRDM

“Etanercept (from UniProt P20333 23-257) (Fc fusion)”: the fold of KD against adalimumab was 4 fold.
